The values below are quoted from earlier work in article PMC2904412.

The data set deals with thrombomodulin (Homo sapiens) (UniProt P07204).

For thrombin (from UniProt P00734), the Kd is less than 1 nM.

Usually Kd stands for the concentration at which binding is half-saturated.
